Data reported in PMC9239103, “System-Wide Analysis of the GATC-Binding Nucleoid-Associated Protein Gbn and Its Impact on Streptomyces Development”.

T1: Gbn (SCO1839) (Streptomyces coelicolor A3(2) M145, UniProt Q9RJ29 1-73)
T1 sequence: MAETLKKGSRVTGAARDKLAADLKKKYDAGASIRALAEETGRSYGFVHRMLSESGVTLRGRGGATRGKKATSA

B1: p1839_50Single_strong (++, GATCWT) (dsDNA)
DNA 1: CTCGACGCCGTCCGGAAGCAGAATGATCCGTTCCGGCTGGAGCGCCTCGA
DNA 2: TCGAGGCGCTCCAGCCGGAACGGATCATTCTGCTTCCGGACGGCGTCGAG
B2: p1839_50Quadruple (dsDNA)
DNA 1: GATGGCGGATCACGGATCGGCCGAATGATCCATAACCAGTGGATCATCCA
DNA 2: TGGATGATCCACTGGTTATGGATCATTCGGCCGATCCGTGATCCGCCATC

What was measured:
Gbn (SCO1839) [1] = molecular target: T1, Gbn (SCO1839); test: EMSA; half-binding concentration reduced by more than one-third versus N2; 5 nM DNA; EMSA: 10 mM Tris-HCl pH 7.9, 0.1 mM EDTA, 50 mM KCl, 30 C 15 min, 5% PAGE, ethidium bromide; TPM: 10 mM Tris-HCl pH 8.0, 0.1 mM EDTA, 50 mM KCl, 0.5% acetylated BSA; conditions: protein: recombinant; tags: His6 (pET28a, pGWS1286; printed as both His6-Gbn and Gbn-His6); blunt
Gbn (SCO1839) [2] = molecular target: T1, Gbn (SCO1839); test: EMSA; three binding events seen for four motifs; 7.5 nM DNA; EMSA: 10 mM Tris-HCl pH 7.9, 0.1 mM EDTA, 50 mM KCl, 30 C 15 min, 5% PAGE, ethidium bromide; TPM: 10 mM Tris-HCl pH 8.0, 0.1 mM EDTA, 50 mM KCl, 0.5% acetylated BSA; conditions: protein: recombinant; tags: His6 (pET28a, pGWS1286; printed as both His6-Gbn and Gbn-His6); blunt

Binder | binding result (Gbn (SCO1839) [1]) | binding result (Gbn (SCO1839) [2])
B1 | binds | 
B2 |  | binds
